B1: Kinetochore protein Nuf2 (Homo sapiens), Q9BZD4 (parent)
chain: METLSFPRYNVAEIVIHIRNKILTGADGKNLTKNDLYPNPKPEVLHMIYMRALQIVYGIRLEHFYMMPVNSEVMYPHLMEGFLPFSNLVTHLDSFLPICRVNDFETADILCPKAKRTSRFLSGIINFIHFREACRETYMEFLWQYKSSADKMQQLNAAHQEALMKLERLDSVPVEEQEEFKQLSDGIQELQQSLNQDFHQKTIVLQEGNSQKKSNISEKTKRLNELKLSVVSLKEIQESLKTKIVDSPEKLKNYKEKMKDTVQKLKNARQEVVEKYEIYGDSVDCLPSCQLEVQLYQKKIQDLSDNREKLASILKESLNLEDQIESDESELKKLKTEENSFKRLMIVKKEKLATAQFKINKKHEDVKQYKRTVIEDCNKVQEKRGAVYERVTTINQEIQKIKLGIQQLKDAAEREKLKSQEIFLNLKTALEKYHDGIEKAAEDSYAKIDEKTAELKRKMFKMST
partner: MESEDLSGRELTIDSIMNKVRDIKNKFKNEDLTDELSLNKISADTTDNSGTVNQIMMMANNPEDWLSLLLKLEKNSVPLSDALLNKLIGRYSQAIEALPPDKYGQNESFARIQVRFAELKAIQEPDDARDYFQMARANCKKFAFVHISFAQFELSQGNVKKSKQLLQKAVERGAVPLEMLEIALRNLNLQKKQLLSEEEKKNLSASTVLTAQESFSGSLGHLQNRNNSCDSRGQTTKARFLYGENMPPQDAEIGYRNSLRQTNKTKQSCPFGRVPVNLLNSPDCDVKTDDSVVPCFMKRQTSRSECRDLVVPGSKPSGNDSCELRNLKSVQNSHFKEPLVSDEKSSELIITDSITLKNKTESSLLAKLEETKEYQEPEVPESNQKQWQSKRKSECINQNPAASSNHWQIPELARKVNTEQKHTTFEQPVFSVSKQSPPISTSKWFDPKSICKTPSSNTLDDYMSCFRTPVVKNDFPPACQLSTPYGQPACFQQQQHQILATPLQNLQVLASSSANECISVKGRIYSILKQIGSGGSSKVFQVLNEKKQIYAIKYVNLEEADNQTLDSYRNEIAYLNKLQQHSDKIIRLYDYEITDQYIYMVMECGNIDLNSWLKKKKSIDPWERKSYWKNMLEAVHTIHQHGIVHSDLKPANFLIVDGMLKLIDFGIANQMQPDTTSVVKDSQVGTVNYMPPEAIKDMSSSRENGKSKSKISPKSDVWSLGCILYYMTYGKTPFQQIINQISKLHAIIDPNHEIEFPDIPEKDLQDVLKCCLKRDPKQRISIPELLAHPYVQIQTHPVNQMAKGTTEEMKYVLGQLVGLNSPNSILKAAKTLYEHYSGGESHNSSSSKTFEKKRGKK
B2: Kinetochore protein NDC80 homolog (Homo sapiens), O14777 (parent)
chain: MKRSSVSSGGAGRLSMQELRSQDVNKQGLYTPQTKEKPTFGKLSINKPTSERKVSLFGKRTSGHGSRNSQLGIFSSSEKIKDPRPLNDKAFIQQCIRQLCEFLTENGYAHNVSMKSLQAPSVKDFLKIFTFLYGFLCPSYELPDTKFEEEVPRIFKDLGYPFALSKSSMYTVGAPHTWPHIVAALVWLIDCIKIHTAMKESSPLFDDGQPWGEETEDGIMHNKLFLDYTIKCYESFMSGADSFDEMNAELQSKLKDLFNVDAFKLESLEAKNRALNEQIARLEQEREKEPNRLESLRKLKASLQGDVQKYQAYMSNLESHSAILDQKLNGLNEEIARVELECETIKQENTRLQNIIDNQKYSVADIERINHERNELQQTINKLTKDLEAEQQKLWNEELKYARGKEAIETQLAEYHKLARKLKLIPKGAENSKGYDFEIKFNPEAGANCLVKYRAQVYVPLKELLNETEEEINKALNKKMGLEDTLEQLNAMITESKRSVRTLKEEVQKLDDLYQQKIKEAEEEDEKCASELESLEKHKHLLESTVNQGLSEAMNELDAVQREYQLVVQTTTEERRKVGNNLQRLLEMVATHVGSVEKHLEEQIAKVDREYEECMSEDLSENIKEIRDKYEKKATLIKSSEE
partner: B1 partner

Variants of: B1
Details: with TTK

effect of a mutation on the interaction | Variant
disrupting interaction strength | METLSAARYNVAEIVIHIRNKILTGADGKNLTKNDLYPNPKPEVLHMIYMRALQIVYGIRLEHFYMMPVNSEVMYPHLMEGFLPFSNLVTHLDSFLPICRVNDFETADILCPKAKRTSRFLSGIINFIHFREACRETYMEFLWQYKSSADKMQQLNAAHQEALMKLERLDSVPVEEQEEFKQLSDGIQELQQSLNQDFHQKTIVLQEGNSQKKSNISEKTKRLNELKLSVVSLKEIQESLKTKIVDSPEKLKNYKEKMKDTVQKLKNARQEVVEKYEIYGDSVDCLPSCQLEVQLYQKKIQDLSDNREKLASILKESLNLEDQIESDESELKKLKTEENSFKRLMIVKKEKLATAQFKINKKHEDVKQYKRTVIEDCNKVQEKRGAVYERVTTINQEIQKIKLGIQQLKDAAEREKLKSQEIFLNLKTALEKYHDGIEKAAEDSYAKIDEKTAELKRKMFKMST [F6A;P7A]
decreasing interaction strength | METLSFPRYNVAEIVIHIRNKILTGADGKNLTKNDLYPNPKPEVLHMIYMRALQIVYGIRLEHFYMMPVNSEVMYPHLMEGFLPFSNLVTHLDSFLPICRVNKFETADILCPKAKRTSRFLSGIINFIHFREACRETYMEFLWQYKSSADKMQQLNAAHQEALMKLERLDSVPVEEQEEFKQLSDGIQELQQSLNQDFHQKTIVLQEGNSQKKSNISEKTKRLNELKLSVVSLKEIQESLKTKIVDSPEKLKNYKEKMKDTVQKLKNARQEVVEKYEIYGDSVDCLPSCQLEVQLYQKKIQDLSDNREKLASILKESLNLEDQIESDESELKKLKTEENSFKRLMIVKKEKLATAQFKINKKHEDVKQYKRTVIEDCNKVQEKRGAVYERVTTINQEIQKIKLGIQQLKDAAEREKLKSQEIFLNLKTALEKYHDGIEKAAEDSYAKIDEKTAELKRKMFKMST [D103K]
disrupting interaction strength | METLSFPRYNVAEIVIHIRNKILTGADGKNLTKNDLYPNPKPEVLHMIYMRALQIVYGIRLEHFYMMPVNSEVMYPHLMEGFLPFSNLVTHLDSFLPICRVNDFETADILCPKAKRTSRFLSGIIAFIHFREACRETYMEFLWQYKSSADKMQQLNAAHQEALMKLERLDSVPVEEQEEFKQLSDGIQELQQSLNQDFHQKTIVLQEGNSQKKSNISEKTKRLNELKLSVVSLKEIQESLKTKIVDSPEKLKNYKEKMKDTVQKLKNARQEVVEKYEIYGDSVDCLPSCQLEVQLYQKKIQDLSDNREKLASILKESLNLEDQIESDESELKKLKTEENSFKRLMIVKKEKLATAQFKINKKHEDVKQYKRTVIEDCNKVQEKRGAVYERVTTINQEIQKIKLGIQQLKDAAEREKLKSQEIFLNLKTALEKYHDGIEKAAEDSYAKIDEKTAELKRKMFKMST [N126A]
decreasing interaction strength | METLSFPRYNVAEIVIHIRNKILTGADGKNLTKNDLYPNPKPEVLHMIYMRALQIVYGIRLEHFYMMPVNSEVMYPHLMEGFLPFSNLVTHLDSFLPICRVNDFETADILCPKAKRTSRFLSGIINFIAFREACRETYMEFLWQYKSSADKMQQLNAAHQEALMKLERLDSVPVEEQEEFKQLSDGIQELQQSLNQDFHQKTIVLQEGNSQKKSNISEKTKRLNELKLSVVSLKEIQESLKTKIVDSPEKLKNYKEKMKDTVQKLKNARQEVVEKYEIYGDSVDCLPSCQLEVQLYQKKIQDLSDNREKLASILKESLNLEDQIESDESELKKLKTEENSFKRLMIVKKEKLATAQFKINKKHEDVKQYKRTVIEDCNKVQEKRGAVYERVTTINQEIQKIKLGIQQLKDAAEREKLKSQEIFLNLKTALEKYHDGIEKAAEDSYAKIDEKTAELKRKMFKMST [H129A]
decreasing interaction strength | METLSFPRYNVAEIVIHIRNKILTGADGKNLTKNDLYPNPKPEVLHMIYMRALQIVYGIRLEHFYMMPVNSEVMYPHLMEGFLPFSNLVTHLDSFLPICRVNDFETADILCPKAKETSRFLSGIINFIHFREACRETYMEFLWQYKSSADKMQQLNAAHQEALMKLERLDSVPVEEQEEFKQLSDGIQELQQSLNQDFHQKTIVLQEGNSQKKSNISEKTKRLNELKLSVVSLKEIQESLKTKIVDSPEKLKNYKEKMKDTVQKLKNARQEVVEKYEIYGDSVDCLPSCQLEVQLYQKKIQDLSDNREKLASILKESLNLEDQIESDESELKKLKTEENSFKRLMIVKKEKLATAQFKINKKHEDVKQYKRTVIEDCNKVQEKRGAVYERVTTINQEIQKIKLGIQQLKDAAEREKLKSQEIFLNLKTALEKYHDGIEKAAEDSYAKIDEKTAELKRKMFKMST [R116E]
decreasing interaction strength | METLSFPRYNVAEIVIHIRNKILTGADGKNLTKNDLYPNPKPEVLHMIYMRALQIVYGIRLEHFYMMPVNSEVMYPHLMEGFLPFSNLVTHLDSFLPICRVNDFETADILCPKAERTSRFLSGIINFIHFREACRETYMEFLWQYKSSADKMQQLNAAHQEALMKLERLDSVPVEEQEEFKQLSDGIQELQQSLNQDFHQKTIVLQEGNSQKKSNISEKTKRLNELKLSVVSLKEIQESLKTKIVDSPEKLKNYKEKMKDTVQKLKNARQEVVEKYEIYGDSVDCLPSCQLEVQLYQKKIQDLSDNREKLASILKESLNLEDQIESDESELKKLKTEENSFKRLMIVKKEKLATAQFKINKKHEDVKQYKRTVIEDCNKVQEKRGAVYERVTTINQEIQKIKLGIQQLKDAAEREKLKSQEIFLNLKTALEKYHDGIEKAAEDSYAKIDEKTAELKRKMFKMST [K115E]

Variants of: B2
Details: with TTK

effect of a mutation on the interaction | Variant
decreasing interaction strength | K89E;K166E
decreasing interaction strength | K166E
decreasing interaction strength | K89E
